Assay in all cases: SPR (Biacore), fusion protein captured on chip, human apical domain TfR injected, steady-state fit
(SPR reads the build-up and loss of mass on a sensor chip optically.)

One experiment has as its target T1, ETV:GAA Fusion 3 (human, UniProt P0DOX5 223-449 = IgG part).
T1 construct: Heterodimer of the two chains; also called C-terminal monozyme GAA-Fc fusion protein
As to the method: (§1) To determine whether GAA-Fc fusion proteins with engineered TfR binding affects the ability of the modified Fc domain to interact with human TfR, the affinity of ETV:GAA fusion proteins (Example 1) for human TfR was assessed using a Biacore™ surface plasmon resonance assay. Biacore™ Series S CM5 sensor chips were immobilized with anti-human Fab (human Fab capture kit from GE Healthcare). Five (5) μg/mL of the GAA-Fc fusion proteins were captured for 1 minute on each flow cell and serial 3-fold dilutions of human apical domain TfR were injected at a flow rate of 30 μL/min. Each sample was analyzed with a 3-minute association and a 3-minute dissociation. After each injection, the chip was regenerated using 10 mM glycine-HCl (pH 2.1). Binding response was corrected by subtracting the RU from a flow cell capturing an irrelevant IgG at similar density. Steady-state affinities were obtained by fitting the response at equilibrium against the concentration using Biacore™ T200 Evaluation Software v3.1.

The next experiment addresses T2, ETV:GAA Fusion 1 (human, UniProt P0DOX5 223-449 = IgG part).
T2 construct: Heterodimer of the two chains; also called N-terminal monozyme GAA-Fc fusion protein
The protocol: as §1

The target of a further experiment is T3, ETV:GAA Fusion 2 (human, UniProt P0DOX5 223-449 = IgG part).
T3 construct: Heterodimer of the two chains; also called N-terminal monozyme GAA-Fc fusion protein
The protocol: as §1

The target in another experiment is T4, ETV:GAA Fusion 4 (human, UniProt P0DOX5 223-449 = IgG part).
T4 construct: Heterodimer of the two chains; also called C-terminal monozyme GAA-Fc fusion protein
As to the method: as §1

Among the data in patent publication US20250250555A1 (DENALI THERAPEUTICS, published 2025) are Kd values, retold here.

The Kd is a measure of binding affinity in units of concentration.

B1: human apical domain TfR (receptor)
chain: NSVIIVDKNGRLVYLVENPGGYVAYSKAATVTGKLVHANFGTKKDFEDLYTPVNGSIVIVRAGKITFAEKVANAESLNAIGVLIYMDQTKFPIVNAELSFFGHAHLGTGDPYTPGFPSFNHTQFPPSRSSGLPNIPVQTISRAAAEKLFGNMEGDCPSDWKTDSTCRMVTSESKNVKLTVS
notes: also called human TfR; huTfR
In the case of B1, the Kd with ETV:GAA Fusion 3 was determined as 282 nM; with ETV:GAA Fusion 1 it was 251 nM; with ETV:GAA Fusion 2, 260 nM; with ETV:GAA Fusion 4, 271 nM.
